What is called Ki is the equilibrium dissociation constant of an inhibitor or competing ligand from its target. A lower Ki goes with tighter binding.

This test deals with Bacillus anthracis Bla1 β-lactamase (Bacillus anthracis).

BLIP [change], sequence (P35804 37-201 Y86A): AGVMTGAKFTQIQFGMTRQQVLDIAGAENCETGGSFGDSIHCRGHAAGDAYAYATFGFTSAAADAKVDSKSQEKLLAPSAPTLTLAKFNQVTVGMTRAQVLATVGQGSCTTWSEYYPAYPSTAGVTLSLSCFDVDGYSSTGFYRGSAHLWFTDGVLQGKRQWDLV

“BLIP [change] (from UniProt P35804 37-201) (natural protein)” had a Ki of 1.2 nM. In other words, the single-digit nanomolar range.

(Values after publication PMC5340008 (BMC Biochemistry, 2017).)
